Assay results reported in the supplement of paper PMC10567573.

B1: SNX8 (parent)
chain: RMVPALPPKRMLGADREFIEARRR

Variants of: B1
Experiment: protein stability index of a GFP-peptide fusion (GPS, HEK-293T) (PSI 1-6); higher = more stable
Settings: c terminus: a fixed tail appended
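Also: lentivirally expressed fusions sorted by FACS into six bins by GFP to DsRed ratio, PSI derived from sequencing read proportions per bin multiplied by bin number.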

Protein stability index: each site, then its substitutions
M11: D 4.62 | W 2.54 | H 3.52 | F 3.36 | G 4.28 | N 3.77 | Q 3.6
L12: T 4.43 | V 4.42 | C 3.91 | D 4.54 | Q 4.61 | G 4.66
R1: N 2.71 | E 3.56 | C 3.28 | L 1.96 | M 2.88 | T 2.69 | I 3.21 | Q 3.54 | F 2.22
R10: V 4.04 | E 4.84 | C 3.61 | P 4.44 | L 3.5
F18: P 4.64 | T 4.2 | W 3.75 | M 3.78 | L 3.84 | R 4.52 | K 4.26 | Q 4.46
A21: G 4.32 | L 4.1 | H 4.32 | F 3.31 | W 2.67 | C 4.08
P4: L 2.28 | Q 3.49
R23: W 1.28 | K 4.02 | D 4.53 | C 2.95 | Y 2.97 | F 1.75 | I 2.58 | T 3.56 | V 3.4 | M 2.4 | S 3.56 | P 3.66
P8: Q 3.79 | D 3.82 | E 3.86 | H 3.85 | S 3.73
E20: R 4.28 | Q 4.01 | C 4.06
P7: K 3.91 | N 3.45 | S 4.08 | Q 3.5 | L 3.18 | T 3.6 | W 3.3 | M 3.52 | E 4.35 | A 3.58 | H 3.75
L6: F 3.45 | V 3.97 | M 3.73 | T 3.63 | G 3.88 | N 3.96 | I 3.96
R22: V 3.33 | L 2.92 | F 3.58 | Q 4.05 | C 4 | E 4.43 | N 3.77
I19: K 4.26 | L 3.06 | E 4.11 | F 3.61 | N 3.73 | Q 4.29 | V 4.09 | M 3.55 | G 3.96 | H 3.35 | W 3.82 | C 3.36
D15: T 3.69 | P 4.16 | A 2.77 | F 1.99 | G 3.98 | N 3.43
A5: M 3.49 | P 3.59 | N 4.08 | V 4.01 | E 4.12 | I 3.2
R16: F 1.96 | K 3.71 | Y 2.08 | M 3.55 | H 3.67
M2: Q 4.57 | V 3.58 | N 3.99 | C 3.22 | Y 3.57 | S 4.46 | K 4.1 | R 3.94
V3: A 3.31 | I 2.38 | M 1.29 | Q 3.9 | E 4.49
A14: P 4 | T 3.63 | S 3.9 | E 4.34 | C 3.52 | Y 2.88 | L 3.55 | I 3.54 | Q 3.81
K9: T 3.64 | A 4.09 | Y 3.95 | F 3.83 | G 3.6 | W 4.02 | Q 4.73
E17: I 2.64 | D 3.67 | N 4 | R 4.1 | Y 3.21 | P 4.09 | W 2.19 | S 3.87 | F 2.08
G13: P 2.83 | L 2.69 | Y 3.13 | E 3.57 | T 3.14 | S 3.54
R24: H 3.83 | C 3.53 | F 3.2 | A 4 | P 3.53 | Y 2.38
